Experiments:
drUvrA1 [1] = target: T1, drUvrA1 (Deinococcus radiodurans, UniProt Q46577 1-1016); assay: fluorescence polarization; 2.5 mM Mg2+, 2.5 mM ATP; Hill 2.10; 50 mM Tris pH 7.5, 50 mM KCl, 5 mM DTT, 0.01% Tween 20, 2.5 mM MgCl2, 2.5 mM ATP, 0.1 mg/mL BSA; room temperature; 2 nM DNA, 0-1 uM drUvrA1 (dimer); conditions: protein: recombinant; tags: N-terminal His-tag removed by TEV; chain copies: 2; label: 5'-ATTO633 on strand 1; internal fluorescein-dT; blunt
drUvrA1 [2] = target: T1, drUvrA1; assay: fluorescence polarization; 2.5 mM Mg2+, 2.5 mM ATP; Hill 1.34; 50 mM Tris pH 7.5, 50 mM KCl, 5 mM DTT, 0.01% Tween 20, 2.5 mM MgCl2, 2.5 mM ATP, 0.1 mg/mL BSA; room temperature; 2 nM DNA, 0-1 uM drUvrA1 (dimer); conditions: protein: recombinant; tags: N-terminal His-tag removed by TEV; chain copies: 2; label: 5'-ATTO633 on strand 1; internal fluorescein-dT; blunt
drUvrA1 [3] = target: T1, drUvrA1; assay: fluorescence polarization; 2.5 mM Mg2+, 2.5 mM ATP; Hill 0.92; 50 mM Tris pH 7.5, 50 mM KCl, 5 mM DTT, 0.01% Tween 20, 2.5 mM MgCl2, 2.5 mM ATP, 0.1 mg/mL BSA; room temperature; 2 nM DNA, 0-1 uM drUvrA1 (dimer); conditions: protein: recombinant; tags: N-terminal His-tag removed by TEV; chain copies: 2; label: 5'-FAM on strand 1; blunt
drUvrA1 [4] = target: T1, drUvrA1; assay: fluorescence polarization; 2.5 mM Mg2+, 2.5 mM ATP; Hill 0.97; 50 mM Tris pH 7.5, 50 mM KCl, 5 mM DTT, 0.01% Tween 20, 2.5 mM MgCl2, 2.5 mM ATP, 0.1 mg/mL BSA; room temperature; 2 nM DNA, 0-1 uM drUvrA1 (dimer); conditions: protein: recombinant; tags: N-terminal His-tag removed by TEV; chain copies: 2; label: 5'-FAM on strand 1; blunt

T1 sequence (Q46577 whole entry): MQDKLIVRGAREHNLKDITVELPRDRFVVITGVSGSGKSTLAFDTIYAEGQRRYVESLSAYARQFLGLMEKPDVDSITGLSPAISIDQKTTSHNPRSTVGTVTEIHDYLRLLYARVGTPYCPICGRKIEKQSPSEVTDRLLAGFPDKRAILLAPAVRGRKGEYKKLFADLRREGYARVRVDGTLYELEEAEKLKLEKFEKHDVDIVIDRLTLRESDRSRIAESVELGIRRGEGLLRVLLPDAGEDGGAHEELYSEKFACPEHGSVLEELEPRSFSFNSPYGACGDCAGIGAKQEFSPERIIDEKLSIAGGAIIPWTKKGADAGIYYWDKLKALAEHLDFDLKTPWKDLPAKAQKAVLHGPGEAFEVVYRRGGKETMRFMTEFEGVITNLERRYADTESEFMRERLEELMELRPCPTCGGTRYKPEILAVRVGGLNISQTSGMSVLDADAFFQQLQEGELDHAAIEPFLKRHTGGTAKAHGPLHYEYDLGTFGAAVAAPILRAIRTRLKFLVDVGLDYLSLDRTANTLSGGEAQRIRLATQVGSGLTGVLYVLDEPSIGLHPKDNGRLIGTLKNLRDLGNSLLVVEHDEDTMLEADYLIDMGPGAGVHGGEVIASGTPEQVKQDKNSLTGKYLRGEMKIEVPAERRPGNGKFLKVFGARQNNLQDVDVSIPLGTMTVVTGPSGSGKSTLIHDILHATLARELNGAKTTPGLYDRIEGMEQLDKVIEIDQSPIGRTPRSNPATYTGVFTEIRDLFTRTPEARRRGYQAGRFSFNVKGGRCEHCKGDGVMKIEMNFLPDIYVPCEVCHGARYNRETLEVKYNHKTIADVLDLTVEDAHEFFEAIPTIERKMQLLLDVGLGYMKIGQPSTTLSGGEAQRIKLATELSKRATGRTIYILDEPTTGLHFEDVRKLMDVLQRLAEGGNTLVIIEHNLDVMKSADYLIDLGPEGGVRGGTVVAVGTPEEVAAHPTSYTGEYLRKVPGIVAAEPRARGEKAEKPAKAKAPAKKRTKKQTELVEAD

B1: F26-seq2 (dsDNA)
DNA 1: GTTAGCGAACGATACCTTCAGTAGATCAAGTCCTAGCTGACCGGTTCGGC
DNA 2: GCCGAACCGGTCAGCTAGGACTTGATCTACTGAAGGTATCGTTCGCTAAC
modifications: fluorescein-conjugated dT at position 26 of strand 1
Kd (drUvrA1 [1]): 9 ± 0.5 nM

B2: F26-seq1 (dsDNA)
DNA 1: GACTACGTACTGTTACGGCTCCATCTCTACCGCAATCAGGCCAGATCTGC
DNA 2: GCAGATCTGGCCTGATTGCGGTAGAGATGGAGCCGTAACAGTACGTAGTC
modifications: fluorescein-conjugated dT at position 26 of strand 1
Kd (drUvrA1 [2]): 9 ± 0.7 nM

B3: 5'-FAM-seq1 (seq1-FAM) (dsDNA)
DNA 1: B2 DNA 1
DNA 2: B2 DNA 2
Kd (drUvrA1 [3]): 85 ± 12 nM

B4: B26-seq1 (dsDNA)
DNA 1: B2 DNA 1
DNA 2: B2 DNA 2
modifications: biotin-conjugated dT at position 26 of strand 1
Kd (drUvrA1 [4]): 128 ± 15 nM
